# From publication doi:10.1101/2024.11.08.622755
# Legend:
# [1] = target: Nonlabens marinus rhodopsin 1 (NM-R1), proteorhodopsin clade (Nonlabens marinus S1-08T); experiment: cryo-EM structure
# [2] = target: Nonlabens marinus rhodopsin 3 (NM-R3), chloride ion-pumping rhodopsin clade (Nonlabens marinus S1-08T); experiment: cryo-EM structure
Substance,stoichiometry N [1],stoichiometry N [2]
"Nonlabens marinus rhodopsin 1 (NM-R1), proteorhodopsin clade (natural protein)",5,
"Nonlabens marinus rhodopsin 3 (NM-R3), chloride ion-pumping rhodopsin clade (natural protein)",,5
